Laboratory results as given in patent US20250011430A1 (GUANGZHOU BIO GENE TECHNOLOGY, published 2025).

T1: B7H3 on cells (B7H3 on HEK293 cells; B7H3 expressed from plasmid on HEK-293T and QT6 cells) (human, UniProt Q5ZPR3 29-534)
T1 construct: whole, on cells; also called HEK293 B7H3 proteins; human B7H3
T1 sequence (looked up): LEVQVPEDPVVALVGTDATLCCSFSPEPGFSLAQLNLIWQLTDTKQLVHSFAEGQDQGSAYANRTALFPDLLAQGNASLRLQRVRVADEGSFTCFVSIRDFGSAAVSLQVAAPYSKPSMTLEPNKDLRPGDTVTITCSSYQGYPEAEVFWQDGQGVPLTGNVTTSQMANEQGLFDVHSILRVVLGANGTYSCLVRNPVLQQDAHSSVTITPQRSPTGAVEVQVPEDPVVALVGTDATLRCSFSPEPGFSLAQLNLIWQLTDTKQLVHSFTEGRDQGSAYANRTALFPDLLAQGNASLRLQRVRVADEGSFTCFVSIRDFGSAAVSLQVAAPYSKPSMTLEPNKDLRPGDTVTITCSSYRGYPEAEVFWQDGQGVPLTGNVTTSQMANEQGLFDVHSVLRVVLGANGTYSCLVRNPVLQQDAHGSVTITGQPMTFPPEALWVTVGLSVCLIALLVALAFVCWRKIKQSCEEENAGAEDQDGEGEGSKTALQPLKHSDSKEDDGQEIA

B1: anti-B7H3 antibody 23H1 (antibody, V domains shown)
VH: EVKLVESGGGLVQPGGSLRLSCATSGFTFTDYYMSWVRQPPGKALEWLGFIRNKVNDYTTEYSVSVKGRFTISRDNSQTILYLQMNTLRAEDSATYYCARDSPYRPFAYWGQGTLVTVSA
VL: DIVMTQSPSSLTVTAGENVTMSCKSSQTLLNNGNQKNFLTWYQQKPGQPPKLLIYLASTRESGVPDRFTGSGSGTDFTLTISSVQAEDLAVYYCQNDYTYPLTFGAGTKLELKR
B2: chimeric antibody ch26B6 (antibody, V domains shown)
VH: EVQLQQSGPELVKPGASVKISCKTSGYAFTEYTMHWVKQSQGKSLEWIGGINPNTGGTTYNQKFNGKATLTVDRSSSTAYMELRSLTSEDSAVYYCTRPYRDDGGFHWYFDVWGAGTAVTVSS
VL: QIVLTQSPAVMSTSPGEKVTMTCSASSSVSYMQWYQQKSGTSPKRWIYDTSKLTSGVPARFSGSGSGTSYSLTISSMEAEDAATYYCQQWSSNPLTFGAGTKLELKR
B3: humanized 2B8 (antibody, V domains shown)
VH: QVQLVQSGAEVKKPGASVKVSCKVSGYTFTDGAMHWVRQAPGQGLEWIGIINTNSGNTNYNQKFQGRVTMTRDTSISTAYMELSRLRSEDTAVYYCARGVFYYGYGAWFAYWGQGTLVTVSS
VL: DIQLTQSPSFLSASVGDRVTINCRASKTISNYLAWYQQKPGKAPKLLIYSGSTLQSGVPSRFSGSGSGTDFTLTISSLQPEDFATYYCQQHHEYPLTFGGGTKVEIKR
notes: also called hz2B8; h2B8
B4: chimeric antibody ch2B8 (antibody, V domains shown)
VH: QVQLQQSGPELVRPGVSVKISCKVSGYTFTDGAMHWVKRSHAKSLEWIGIINTNSGNTNYNQKFQGKATMTVDKSSSTAYMELARLTSEDSAIYYCARGVFYYGYGAWFAYWGQGTLVTVSA
VL: DVQITQSPSYLTASPGETIIINCRASKTISNYLAWYQEKPGKTNKLLIYSGSTLQSGIPSRFSGSGSDTDFTLTISSLEPEDFAMYYCQQHHEYPLTFGAGTKLELKR
B5: humanized 6F7 with light chain variable region LV1 (antibody, V domains shown)
VH: EVQLVESGGGLVQPGGSLRLSCAASGFTFTDYYMSWVRQAPGKGLEWVAFIRNKANGYTTEYSASVKGRFTISRDDSKNSLYLQMNSLRAEDTAVYYCARDSHYRPFAYWGQGTLVTVSS
VL: DIVMTQSPLSLPVTPGEPASISCKSSQSLLNSGNQNNYLTWYLQKPGQSPQLLIYLASTRDSGVPDRFSGSGSGTDFTLKISRVEAEDVGVYYCQNDYTYPLTFGGGTKVEIKR
notes: also called hz6F7L1; h6F7H1L1
B6: humanized 6F7 with light chain variable region LV2 (antibody, V domains shown)
VH: EVQLVESGGGLVQPGGSLRLSCAASGFTFTDYYMSWVRQAPGKGLEWVAFIRNKANGYTTEYSASVKGRFTISRDDSKNSLYLQMNSLRAEDTAVYYCARDSHYRPFAYWGQGTLVTVSS
VL: DIVMTQSPDSLAVSLGERATINCKSSQSLLNSGNQNNYLTWYQQKPGQPPKLLIYLASTRDSGVPDRFSGSGSGTDFTLTISSLQAEDVAVYYCQNDYTYPLTFGGGTKVEIKR
notes: also called hz6F7L2; h6F7H1L2
B7: humanized 26B6 (antibody, V domains shown)
VH: EVQLVQSGAEVKKPGASVKVSCKASGYTFTEYTMHWVRQAPGQGLEWIGGINPNTGGTTYNQKFNGRVTMTRDTSISTAYMELSSLRSEDTAVYYCTRPYRDDGGFHWYFDVWGQGTLVTVSS
VL: EIVLTQSPATLSLSPGERATLSCSASSSVSYMQWYQQKPGLAPRLLIYDTSKLTSGIPDRFSGSGSGTDFTLTISRLEPEDFAVYYCQQWSSNPLTFGGGTKVEIKR
notes: also called hz26B6; h26B6
B8: chimeric antibody ch6F7 (antibody, V domains shown)
VH: EVKLVESGGGLVQPGGSLRLSCATSGFTFTDYYMSWVRQPPGKALEWLGFIRNKANGYTTEYSASVKGRFTISSDDSQSILYLQMNTLRAEDSATYYCARDSHYRPFAYWGQGTLVTVSA
VL: DIQMTQSPSSLTVTAGEKVTMSCKSSQSLLNSGNQNNYLTWYQQKPGQPPKLLIYLASTRDSGVPDRFTGSGSGTDFTLTISSVQAEDLAVYYCQNDYTYPLTFGAGTKLELKR

target: T1, B7H3 on cells (B7H3 on HEK293 cells; …); assay: flow cytometry on HEK293 cells, FITC-labelled secondary antibody; y axis without title
Protocol: 5×10⁵ HEK293 cells were resuspended with PBS+5% BSA and incubated for 30 min at 4° C. Different concentrations of antibody (1 μg/mL to 0.01 μg/mL, 10-fold gradient dilution) were added and incubated for 60 min at 4° C. After centrifugation and washing, a PBS+5% BSA solution containing an FITC-labeled secondary antibody (1:200, sigma, F9512) was added and incubated on ice for 30 min in the dark. Cells were washed three times before the flow cytometry analysis.
Using the flow cytometry method, the control antibodies (huM30, Eno) and the 2B8, 26B8, 23H1 and 6F7 antibody were tested for their binding abilities to HEK293 B7H3 proteins at a final concentration of 1 μg/mL, 0.1 μg/mL and 0.01 μg/mL, respectively. Compared with the control antibodies, the 2B8, […], 23H1 and 6F7 antibody each have the same or better binding ability to the HEK293 B7H3 proteins.

Q: Does B1 bind?
A: Result: binds

target: T1, B7H3 on cells (B7H3 on HEK293 cells; …); assay: flow cytometry on HEK293 cells
Protocol: (§1) 2×10⁵ HEK293 cells were resuspended with PBS+5% BSA and incubated for 30 min at 4° C. Different concentrations of humanized antibody (5 μg/mL to 0.002286 μg/mL, 3-fold gradient dilution) were added and incubated for 60 min at 4° C. After centrifugation and washing, a PBS+5% BSA solution containing an FITC-labeled secondary antibody (1:200, sigma, F9512) was added and incubated on ice for 30 min in the dark. Cells were washed three times before the flow cytometry analysis. EC50 was calculated using GraphPad software.

Q: B2 was tested. Which EC50 did it give?
A: Its EC50 is 0.224 µg/mL.

Q: B3 was tested. Which EC50 did it give?
A: Its EC50 is 0.0779 µg/mL.

Q: With B4 as the binder, how does the EC50 read?
A: Its EC50 is 0.132 µg/mL.

Q: B5 was tested. Which EC50 did it give?
A: The EC50 was 0.604 µg/mL.

Q: With B6 as the binder, how does the EC50 read?
A: Its EC50 is 0.41 µg/mL.

Q: With B7 as the binder, how does the EC50 read?
A: The EC50 was 0.306 µg/mL.

target: T1, B7H3 on cells (B7H3 on HEK293 cells; …); assay: flow cytometry on HEK293 cells (text value, conflicts with Table 2)
Protocol: as §1

Q: How did the EC50 turn out when B8 was run?
A: Its EC50 is 0.224 µg/mL.

Q: How did the EC50 turn out when B2 was run?
A: Its EC50 is 0.232 µg/mL.
